Test: UDP luminescence plate assay of E. coli extracts, mutants within SEQ ID No: 17, 2 mM metribuzin
Assay type: biochemical, Zea mays
Conditions: for metribuzin signal relative to the SEQ ID No:17 control (first parentheses) / ratio of metribuzin to DMSO signal (second parentheses) / SIGNAL: metribuzin signal of mutant divided by the signal of the SEQ ID No. 17 control / luminescence signal observed with 2 mM metribuzin: 2 mM metribuzin; for metribuzin signal relative to the SEQ ID No:17 control (first parentheses) / ratio of metribuzin to DMSO signal (second parentheses): additional mutation in SEQ ID No: 17; for SIGNAL: metribuzin signal of mutant divided by the signal of the SEQ ID No. 17 control: relative to SEQ ID No: 17 control; for luminescence signal in the DMSO control / luminescence signal observed with 2 mM metribuzin: additional mutations within SEQ ID No: 17; for luminescence signal in the DMSO control: DMSO in place of metribuzin; for luminescence signal observed with 2 mM metribuzin: control = SEQ ID No: 17
Experimental: Activities observed with metribuzin were generally lower in magnitude than seen with herbicide V in the previous examples. For example, in one plate assay run with 2 mM metribuzin using 5 ul of diluted extract of plate-grown BL21DE3 cells expressing w/t bx9 and assayed for 40 minutes (as described in Example 2) the UDP-Glo luminescence signal was ˜3.4 E6 as compared with ˜2.3E6 in the DMSO control and ˜1.7E6 in the H24A null mutant control. […] It was therefore important to assess potential improvements in the metribuzin activity of the various mutants relative to the wild type bx9 enzyme based not only on the H24A null activity control but also based upon controls with DMSO in place of metribuzin acceptor substrate. In some plate assays (using more dilute extracts) the metribuzin signals from the w/t enzyme was the same or barely greater than the DMSO control. Additionally, some mutations gave an increase in the ‘background’ UDP-glucose hydrolysis activity with just DMSO present that was the same or similar to the magnitude of the increase in signal seen with metribuzin. In these instances it is therefore uncertain from just this UDP-Glo assay method whether the specific metribuzin signal (glucosylation of metribuzin) is improved or not i.e. the signal seen with metribuzin may or may not all or to a large part be attributable to increased background hydrolysis). […] Thus the ratio of the metribuzin to DMSO signal as well as the increase in signal relative to the w/t bx9 is used to help distinguish those mutations most likely to offer the highest activity to metribuzin. A follow up assay monitored by, for example, LC MS is one method to distinguish these cases more quantitatively. The tables below summarise the results from two different sets of luminescence plate assays to detect single mutations giving improvements in the magnitude of the signal with metribuzin relative to w/t bx9 and/or the apparent specificity for metribuzin as measured by the deviation of the ratio of metribuzin to DMSO control activity from the bx9 w/t value of around unity.
A further separate screen was carried out to explore a library of additional mutations at various positions within the context of SEQ ID No: 17 for improved metribuzin activity. These were assayed, assessed and scored as above. […] These were S75K (2.5)(1.25), A236G (4.0)(1.15), A433V (3.3)(9.0) and R449C (1.8)(1.2).
A yet further and more comprehensive screen was carried out to explore saturation mutagenesis at all remaining amino acid positions within the context of SEQ ID No:17 for improved metribuzin activity. Again these were assayed, assessed and scored as above and the results of (out of the thousands screened) of the subset that were of interest are summarized in Table 16.

B1: G418Y: additional mutation in SEQ ID No: 17 (protein)
chain: MASSRTGAGAGGRVVVFPFPFQGHFNPVMRLARALHARGLAITVFHSGALDPADYPADYRFVPVTVEADPKLLASEDIAAIVTTLNASCDAPFRARLSALLAAEGRDSVRCVFTDVVWNAVLTASSDLGVPALGMMTASAASLRDYMAYRTLIDKGYLPVKEERKEDPVPELPPYLVKDLLRVDTSDLEEFAELLARTVTAARRASGLIFNTFPLIETDTLAEIHKALSVPVFAVAPLNKLVPTATASLHGVVQADRGCLQWLDTQQPGSVLYVSFGSFAAMDPHEFVELAWGLADSKRPFVWVVRPNLIRGFESGALPDGVEDEVRGRGIVVKWAPQEEVLAHPAVGGFLTHNGWNSTVEAISEGVPMVCCPRHGDQFGNMRYVCDVWKVGTELVGEQLERGQVKAAIDRLFGTKEYEEIKERMKEFKIAAAKGIGIGVDVDETASPRTDLTDLVDLIKSF
modifications: Mutated Zea mays Bx9 protein sequence
metribuzin signal relative to the SEQ ID No:17 control (first parentheses): 3.1 | ratio of metribuzin to DMSO signal (second parentheses): 1.47 | SIGNAL: metribuzin signal of mutant divided by the signal of the SEQ ID No. 17 control: 3.11 | luminescence signal in the DMSO control: 3.86E+06 | luminescence signal observed with 2 mM metribuzin: 5.67E+06

B2: R424P: additional mutation in SEQ ID No: 17 (protein)
chain: MASSRTGAGAGGRVVVFPFPFQGHFNPVMRLARALHARGLAITVFHSGALDPADYPADYRFVPVTVEADPKLLASEDIAAIVTTLNASCDAPFRARLSALLAAEGRDSVRCVFTDVVWNAVLTASSDLGVPALGMMTASAASLRDYMAYRTLIDKGYLPVKEERKEDPVPELPPYLVKDLLRVDTSDLEEFAELLARTVTAARRASGLIFNTFPLIETDTLAEIHKALSVPVFAVAPLNKLVPTATASLHGVVQADRGCLQWLDTQQPGSVLYVSFGSFAAMDPHEFVELAWGLADSKRPFVWVVRPNLIRGFESGALPDGVEDEVRGRGIVVKWAPQEEVLAHPAVGGFLTHNGWNSTVEAISEGVPMVCCPRHGDQFGNMRYVCDVWKVGTELVGEQLERGQVKAAIDRLFGTKEGEEIKEPMKEFKIAAAKGIGIGVDVDETASPRTDLTDLVDLIKSF
modifications: Mutated Zea mays Bx9 protein sequence
metribuzin signal relative to the SEQ ID No:17 control (first parentheses): 2.5 | ratio of metribuzin to DMSO signal (second parentheses): 1.14 | SIGNAL: metribuzin signal of mutant divided by the signal of the SEQ ID No. 17 control: 2.51 | luminescence signal in the DMSO control: 4.02E+06 | luminescence signal observed with 2 mM metribuzin: 4.58E+06

B3: K429S: additional mutation in SEQ ID No: 17 (protein)
chain: MASSRTGAGAGGRVVVFPFPFQGHFNPVMRLARALHARGLAITVFHSGALDPADYPADYRFVPVTVEADPKLLASEDIAAIVTTLNASCDAPFRARLSALLAAEGRDSVRCVFTDVVWNAVLTASSDLGVPALGMMTASAASLRDYMAYRTLIDKGYLPVKEERKEDPVPELPPYLVKDLLRVDTSDLEEFAELLARTVTAARRASGLIFNTFPLIETDTLAEIHKALSVPVFAVAPLNKLVPTATASLHGVVQADRGCLQWLDTQQPGSVLYVSFGSFAAMDPHEFVELAWGLADSKRPFVWVVRPNLIRGFESGALPDGVEDEVRGRGIVVKWAPQEEVLAHPAVGGFLTHNGWNSTVEAISEGVPMVCCPRHGDQFGNMRYVCDVWKVGTELVGEQLERGQVKAAIDRLFGTKEGEEIKERMKEFSIAAAKGIGIGVDVDETASPRTDLTDLVDLIKSF
modifications: Mutated Zea mays Bx9 protein sequence
metribuzin signal relative to the SEQ ID No:17 control (first parentheses): 2.4 | ratio of metribuzin to DMSO signal (second parentheses): 1.30 | SIGNAL: metribuzin signal of mutant divided by the signal of the SEQ ID No. 17 control: 2.38 | luminescence signal in the DMSO control: 3.34E+06 | luminescence signal observed with 2 mM metribuzin: 4.34E+06

B4: F213W: additional mutation in SEQ ID No: 17 (protein)
chain: MASSRTGAGAGGRVVVFPFPFQGHFNPVMRLARALHARGLAITVFHSGALDPADYPADYRFVPVTVEADPKLLASEDIAAIVTTLNASCDAPFRARLSALLAAEGRDSVRCVFTDVVWNAVLTASSDLGVPALGMMTASAASLRDYMAYRTLIDKGYLPVKEERKEDPVPELPPYLVKDLLRVDTSDLEEFAELLARTVTAARRASGLIFNTWPLIETDTLAEIHKALSVPVFAVAPLNKLVPTATASLHGVVQADRGCLQWLDTQQPGSVLYVSFGSFAAMDPHEFVELAWGLADSKRPFVWVVRPNLIRGFESGALPDGVEDEVRGRGIVVKWAPQEEVLAHPAVGGFLTHNGWNSTVEAISEGVPMVCCPRHGDQFGNMRYVCDVWKVGTELVGEQLERGQVKAAIDRLFGTKEGEEIKERMKEFKIAAAKGIGIGVDVDETASPRTDLTDLVDLIKSF
modifications: Mutated Zea mays Bx9 protein sequence
metribuzin signal relative to the SEQ ID No:17 control (first parentheses): 4.7 | ratio of metribuzin to DMSO signal (second parentheses): 1.24 | SIGNAL: metribuzin signal of mutant divided by the signal of the SEQ ID No. 17 control: 4.75 | luminescence signal in the DMSO control: 6.96E+06 | luminescence signal observed with 2 mM metribuzin: 8.66E+06

B5: A431P: additional mutation in SEQ ID No: 17 (protein)
chain: MASSRTGAGAGGRVVVFPFPFQGHFNPVMRLARALHARGLAITVFHSGALDPADYPADYRFVPVTVEADPKLLASEDIAAIVTTLNASCDAPFRARLSALLAAEGRDSVRCVFTDVVWNAVLTASSDLGVPALGMMTASAASLRDYMAYRTLIDKGYLPVKEERKEDPVPELPPYLVKDLLRVDTSDLEEFAELLARTVTAARRASGLIFNTFPLIETDTLAEIHKALSVPVFAVAPLNKLVPTATASLHGVVQADRGCLQWLDTQQPGSVLYVSFGSFAAMDPHEFVELAWGLADSKRPFVWVVRPNLIRGFESGALPDGVEDEVRGRGIVVKWAPQEEVLAHPAVGGFLTHNGWNSTVEAISEGVPMVCCPRHGDQFGNMRYVCDVWKVGTELVGEQLERGQVKAAIDRLFGTKEGEEIKERMKEFKIPAAKGIGIGVDVDETASPRTDLTDLVDLIKSF
modifications: Mutated Zea mays Bx9 protein sequence
metribuzin signal relative to the SEQ ID No:17 control (first parentheses): 2.8 | ratio of metribuzin to DMSO signal (second parentheses): 1.32 | SIGNAL: metribuzin signal of mutant divided by the signal of the SEQ ID No. 17 control: 2.81 | luminescence signal in the DMSO control: 3.87E+06 | luminescence signal observed with 2 mM metribuzin: 5.12E+06

B6: M425F: additional mutation in SEQ ID No: 17 (protein)
chain: MASSRTGAGAGGRVVVFPFPFQGHFNPVMRLARALHARGLAITVFHSGALDPADYPADYRFVPVTVEADPKLLASEDIAAIVTTLNASCDAPFRARLSALLAAEGRDSVRCVFTDVVWNAVLTASSDLGVPALGMMTASAASLRDYMAYRTLIDKGYLPVKEERKEDPVPELPPYLVKDLLRVDTSDLEEFAELLARTVTAARRASGLIFNTFPLIETDTLAEIHKALSVPVFAVAPLNKLVPTATASLHGVVQADRGCLQWLDTQQPGSVLYVSFGSFAAMDPHEFVELAWGLADSKRPFVWVVRPNLIRGFESGALPDGVEDEVRGRGIVVKWAPQEEVLAHPAVGGFLTHNGWNSTVEAISEGVPMVCCPRHGDQFGNMRYVCDVWKVGTELVGEQLERGQVKAAIDRLFGTKEGEEIKERFKEFKIAAAKGIGIGVDVDETASPRTDLTDLVDLIKSF
modifications: Mutated Zea mays Bx9 protein sequence
metribuzin signal relative to the SEQ ID No:17 control (first parentheses): 4.1 | ratio of metribuzin to DMSO signal (second parentheses): 1.96 | SIGNAL: metribuzin signal of mutant divided by the signal of the SEQ ID No. 17 control: 4.13 | luminescence signal in the DMSO control: 3.84E+06 | luminescence signal observed with 2 mM metribuzin: 7.53E+06

B7: I430P: additional mutation in SEQ ID No: 17 (protein)
chain: MASSRTGAGAGGRVVVFPFPFQGHFNPVMRLARALHARGLAITVFHSGALDPADYPADYRFVPVTVEADPKLLASEDIAAIVTTLNASCDAPFRARLSALLAAEGRDSVRCVFTDVVWNAVLTASSDLGVPALGMMTASAASLRDYMAYRTLIDKGYLPVKEERKEDPVPELPPYLVKDLLRVDTSDLEEFAELLARTVTAARRASGLIFNTFPLIETDTLAEIHKALSVPVFAVAPLNKLVPTATASLHGVVQADRGCLQWLDTQQPGSVLYVSFGSFAAMDPHEFVELAWGLADSKRPFVWVVRPNLIRGFESGALPDGVEDEVRGRGIVVKWAPQEEVLAHPAVGGFLTHNGWNSTVEAISEGVPMVCCPRHGDQFGNMRYVCDVWKVGTELVGEQLERGQVKAAIDRLFGTKEGEEIKERMKEFKPAAAKGIGIGVDVDETASPRTDLTDLVDLIKSF
modifications: Mutated Zea mays Bx9 protein sequence
metribuzin signal relative to the SEQ ID No:17 control (first parentheses): 2.8 | ratio of metribuzin to DMSO signal (second parentheses): 1.34 | SIGNAL: metribuzin signal of mutant divided by the signal of the SEQ ID No. 17 control: 2.82 | luminescence signal in the DMSO control: 3.83E+06 | luminescence signal observed with 2 mM metribuzin: 5.15E+06
